# Molecular target: 329 SOSIP.v8.2 Env trimer (HIV-1 clade C)
# Assay: native gel or EMSA; BN-PAGE, NuPAGE 4–12% Bis-Tris gels; 2 µg SOSIP trimers or equimolar SOSIP–ferritin (2.5 µg) and SOSIP-I53-50 (3.2 µg) NPs
substance,measurement,value
329 SOSIP.v8.2 Env trimer (domain or fragment),stoichiometry N,3
